Source: patent US20040214331A1

Tests used:
[1] = biological target: synthetic HPV16 virus-like particles (L1 and L2) purified from CV-1 cells infected with pLC201VV (human papillomavirus type 16) (UniProt P03101); experiment: ELISA, denatured particles coated in carbonate buffer pH 9.6
[2] = biological target: synthetic HPV16 virus-like particles (L1 and L2) purified from CV-1 cells infected with pLC201VV (human papillomavirus type 16) (UniProt P03101); experiment: ELISA, native VLPs coated in PBS pH 7.5

Chain of UniProt P03101 (P03101 whole entry, chain 1 of 2): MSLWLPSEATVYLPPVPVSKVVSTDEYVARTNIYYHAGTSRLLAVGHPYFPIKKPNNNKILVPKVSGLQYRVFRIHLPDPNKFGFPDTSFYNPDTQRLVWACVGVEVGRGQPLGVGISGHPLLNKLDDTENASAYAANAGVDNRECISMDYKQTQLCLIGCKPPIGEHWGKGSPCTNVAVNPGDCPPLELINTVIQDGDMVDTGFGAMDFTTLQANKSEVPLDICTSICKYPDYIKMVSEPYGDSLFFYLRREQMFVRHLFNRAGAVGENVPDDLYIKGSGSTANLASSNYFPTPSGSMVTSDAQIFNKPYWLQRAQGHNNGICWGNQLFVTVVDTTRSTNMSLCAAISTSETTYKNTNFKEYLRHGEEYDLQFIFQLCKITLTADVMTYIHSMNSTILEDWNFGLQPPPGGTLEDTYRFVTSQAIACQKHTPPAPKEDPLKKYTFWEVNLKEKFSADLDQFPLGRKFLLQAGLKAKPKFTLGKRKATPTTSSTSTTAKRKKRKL
Chain of UniProt P03101 (P03107 whole entry, chain 2 of 2, further chain): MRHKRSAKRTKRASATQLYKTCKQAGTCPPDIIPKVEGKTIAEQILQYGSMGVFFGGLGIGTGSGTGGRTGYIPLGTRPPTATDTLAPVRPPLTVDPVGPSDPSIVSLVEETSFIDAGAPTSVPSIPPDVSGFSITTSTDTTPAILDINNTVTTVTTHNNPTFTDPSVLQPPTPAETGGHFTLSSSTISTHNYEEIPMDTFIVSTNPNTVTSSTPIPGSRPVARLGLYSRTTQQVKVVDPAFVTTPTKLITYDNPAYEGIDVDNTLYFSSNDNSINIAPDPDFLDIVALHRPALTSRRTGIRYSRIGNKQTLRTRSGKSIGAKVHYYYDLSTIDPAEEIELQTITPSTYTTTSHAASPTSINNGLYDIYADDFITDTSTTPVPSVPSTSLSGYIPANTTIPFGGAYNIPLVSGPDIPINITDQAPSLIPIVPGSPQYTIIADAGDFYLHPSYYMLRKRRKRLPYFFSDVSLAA

anti-HPV16 L1 monoclonal antibody Camvir 1
OD [1]: 0.107 OD | OD [2]: 0.064 OD
